# B1: CSPG4 domain 1 fragment D1_(401-560) with C-terminal GFP tag (domain or fragment, UniProt Q6UVK1 401-560, looked up)
# chain: LAPEAWPAMELPEPCVPEPGLPPVFANFTQLLTISPLVVAEGGTAWLEWRHVQPTLDLMEAELRKSQVLFSVTRGARHGELELDIPGAQARKMFTLLDVVNRKARFIHDGSEDTSDQLVLEVSVTARVPMPSCLRRGQTYLLPIQVNPVNDPPHIIFPHG
# notes: not shown: GFP, C-terminal, kept
# Columns and labels:
# [1] = target: CSPG4 D1401-560 401-560 (Homo sapiens) (UniProt Q6UVK1); conditions: cited from earlier work
# [2] = target: FZD2 CRD (CRD2) CRD (Homo sapiens) (UniProt Q14332); conditions: cited from earlier work
# [3] = target: Frizzled-2 cysteine-rich domain Fc fusion (FZD2-CRD-Fc, 'CRD2') (UniProt Q14332); assay: Bio-layer interferometry (Octet Red 96, ForteBio); conditions: 25°C, PBS (composition not stated)
# [4] = target: CSPG4 domain 1 fragment, residues 401-560 (D1401-560), C-terminal GFP (UniProt Q6UVK1); assay: Bio-layer interferometry (Octet Red 96, ForteBio); conditions: pH 7.5; 25°C; PBS (composition not stated)
# Sequence of CSPG4 domain 1 fragment, residues 401-560 (D1401-560), C-terminal GFP (Q6UVK1 whole entry, the tested form may be a part): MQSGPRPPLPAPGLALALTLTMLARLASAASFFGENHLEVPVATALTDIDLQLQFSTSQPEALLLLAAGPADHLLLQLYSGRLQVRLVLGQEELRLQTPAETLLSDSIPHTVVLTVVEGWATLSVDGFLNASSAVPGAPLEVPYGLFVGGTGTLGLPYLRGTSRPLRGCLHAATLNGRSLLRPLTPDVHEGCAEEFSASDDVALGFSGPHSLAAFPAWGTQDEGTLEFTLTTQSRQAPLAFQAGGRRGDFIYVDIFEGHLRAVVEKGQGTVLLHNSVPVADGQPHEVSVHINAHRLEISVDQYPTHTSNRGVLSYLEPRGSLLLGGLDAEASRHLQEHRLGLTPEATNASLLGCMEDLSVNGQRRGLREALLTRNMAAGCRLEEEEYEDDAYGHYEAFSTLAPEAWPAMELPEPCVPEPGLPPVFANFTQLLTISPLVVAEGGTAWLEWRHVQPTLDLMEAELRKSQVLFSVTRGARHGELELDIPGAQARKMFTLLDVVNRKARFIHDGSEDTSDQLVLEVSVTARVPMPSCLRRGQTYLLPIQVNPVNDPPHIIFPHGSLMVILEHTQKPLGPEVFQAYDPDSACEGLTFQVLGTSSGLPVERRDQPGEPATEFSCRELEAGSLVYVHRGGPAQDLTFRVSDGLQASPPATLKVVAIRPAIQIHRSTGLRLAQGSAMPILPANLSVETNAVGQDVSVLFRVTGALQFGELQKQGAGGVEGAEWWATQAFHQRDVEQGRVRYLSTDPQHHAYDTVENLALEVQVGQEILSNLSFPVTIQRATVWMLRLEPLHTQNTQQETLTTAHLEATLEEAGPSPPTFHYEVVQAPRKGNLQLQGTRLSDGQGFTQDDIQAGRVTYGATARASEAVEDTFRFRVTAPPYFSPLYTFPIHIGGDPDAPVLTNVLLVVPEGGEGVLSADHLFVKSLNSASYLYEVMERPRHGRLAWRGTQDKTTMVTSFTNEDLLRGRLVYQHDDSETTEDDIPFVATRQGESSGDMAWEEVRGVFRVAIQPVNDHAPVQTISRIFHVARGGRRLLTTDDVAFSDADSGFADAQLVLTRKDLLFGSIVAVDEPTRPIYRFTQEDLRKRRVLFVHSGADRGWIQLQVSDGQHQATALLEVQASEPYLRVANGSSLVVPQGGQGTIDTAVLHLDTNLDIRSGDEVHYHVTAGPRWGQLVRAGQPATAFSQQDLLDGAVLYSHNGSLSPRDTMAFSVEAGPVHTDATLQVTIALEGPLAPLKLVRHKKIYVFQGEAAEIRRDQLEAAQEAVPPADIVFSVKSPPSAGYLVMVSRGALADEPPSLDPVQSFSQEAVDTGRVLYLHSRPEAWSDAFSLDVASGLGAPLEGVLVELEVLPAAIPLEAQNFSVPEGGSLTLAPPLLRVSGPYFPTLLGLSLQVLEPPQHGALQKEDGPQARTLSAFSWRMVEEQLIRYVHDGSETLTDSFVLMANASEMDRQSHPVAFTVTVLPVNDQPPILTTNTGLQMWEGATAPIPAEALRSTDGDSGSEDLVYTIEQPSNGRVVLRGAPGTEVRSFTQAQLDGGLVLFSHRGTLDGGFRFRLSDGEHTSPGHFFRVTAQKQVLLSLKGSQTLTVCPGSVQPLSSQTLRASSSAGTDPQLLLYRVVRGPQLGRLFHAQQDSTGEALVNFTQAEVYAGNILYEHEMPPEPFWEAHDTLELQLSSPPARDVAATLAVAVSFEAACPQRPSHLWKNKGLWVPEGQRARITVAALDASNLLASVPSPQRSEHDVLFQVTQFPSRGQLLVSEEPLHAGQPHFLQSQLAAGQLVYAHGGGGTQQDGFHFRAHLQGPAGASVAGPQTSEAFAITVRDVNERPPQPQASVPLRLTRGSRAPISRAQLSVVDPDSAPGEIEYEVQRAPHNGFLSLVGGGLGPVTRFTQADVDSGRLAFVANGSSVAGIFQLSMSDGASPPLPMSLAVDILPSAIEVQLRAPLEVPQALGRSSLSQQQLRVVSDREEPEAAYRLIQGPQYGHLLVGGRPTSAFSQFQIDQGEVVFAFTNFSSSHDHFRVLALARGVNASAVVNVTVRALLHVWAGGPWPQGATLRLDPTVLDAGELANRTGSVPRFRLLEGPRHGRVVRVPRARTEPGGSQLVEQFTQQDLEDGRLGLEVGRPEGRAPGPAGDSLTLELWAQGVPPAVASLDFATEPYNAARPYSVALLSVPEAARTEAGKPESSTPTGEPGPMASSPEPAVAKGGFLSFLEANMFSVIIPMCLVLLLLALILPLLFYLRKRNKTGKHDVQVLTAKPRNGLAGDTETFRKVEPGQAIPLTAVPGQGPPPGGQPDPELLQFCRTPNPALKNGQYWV
# [5] = target: TcdB-biotin (biotinylated full-length TcdB) (Clostridioides difficile (VPI 10463 …, UniProt P18177 1-2366)); assay: ELISA; conditions: both partners purified
molecule,measurement,setting,value
TcdB (from UniProt P18177),Kd,[1],29 nM
same,Kd,[2],19 nM
"Toxin B (TcdB), full length, C-terminal 6xHis",KD,[3]; pH 5,approximately 1 μM
same,KD,[3]; pH 7.5,approximately 12 nM
same,KD,[4],approximately 10 nM
B1,binding result,[5],binds

# Reference: article PMC8982864 (PLoS Biology, 2022)
